Source: IntAct's records for PubMed 18171471

B1: Focal adhesion kinase 1 (Gallus gallus (Chicken)), Q00944 (parent)
chain: MAAAYLDPNLNHTPSSSAKTHLGTGMERSPGAMERVLKVFHYFENSSEPTTWASIIRHGDATDVRGIIQKIVDCHKVKNVACYGLRLSHLQSEEVHWLHLDMGVSNVREKFELAHPPEEWKYELRIRYLPKGFLNQFTEDKPTLNFFYQQVKNDYMLEIADQVDQEIALKLGCLEIRRSYGEMRGNALEKKSNYEVLEKDVGLRRFFPKSLLDSVKAKTLRKLIQQTFRQFANLNREESILKFFEILSPVYRFDKECFKCALGSSWIISVELAIGPEEGISYLTDKGANPTHLADFNQVQTIQYSNSEDKDRKGMLQLKIAGAPEPLTVTAPSLTIAENMADLIDGYCRLVNGATQSFIIRPQKEGERALPSIPKLANNEKQGVRSHTVSVSETDDYAEIIDEEDTYTMPSTRDYEIQRERIELGRCIGEGQFGDVHQGIYMSPENPAMAVAIKTCKNCTSDSVREKFLQEALTMRQFDHPHIVKLIGVITENPVWIIMELCTLGELRSFLQVRKFSLDLASLILYAYQLSTALAYLESKRFVHRDIAARNVLVSATDCVKLGDFGLSRYMEDSTYYKASKGKLPIKWMAPESINFRRFTSASDVWMFGVCMWEILMHGVKPFQGVKNNDVIGRIENGERLPMPPNCPPTLYSLMTKCWAYDPSRRPRFTELKAQLSTILEEEKLQQEERMRMESRRQVTVSWDSGGSDEAPPKPSRPGYPSPRSSEGFYPSPQHMVQPNHYQVSGYSGSHGIPAMAGSIYPGQASLLDQTDSWNHRPQEVSAWQPNMEDSGTLDVRGMGQVLPTHLMEERLIRQQQEMEEDQRWLEKEERFLVMKPDVRLSRGSIEREDGGLQGPAGNQHIYQPVGKPDHAAPPKKPPRPGAPHLGSLASLNSPVDSYNEGVKIKPQEISPPPTANLDRSNDKVYENVTGLVKAVIEMSSKIQPAPPEEYVPMVKEVGLALRTLLATVDESLPVLPASTHREIEMAQKLLNSDLAELINKMKLAQQYVMTSLQQEYKKQMLTAAHALAVDAKNLLDVIDQARLKMISQSRPH

Variants of: B1
Settings: with paxi_chick PXN

Row | Variant | effect of a mutation on the interaction
1 | E949A;K956A;R963A | decreasing interaction
2 | I937A | decreasing interaction
